The assay addresses porcine brain tubulin (alpha/beta heterodimer), as paclitaxel-stabilised microtubule lattice (straight tubulin) or as curved tubulin protofilaments (porcine) (UniProt P02550). In words: cryo-EM 2D class averages; CTNM AMP-PNP: 15 uM KLP10A NM with 3 uM polymerized tubulin in BRB80, 5 mM AMPPNP, 5 mM MgCl2, 20 uM paclitaxel, 5 min at room temperature; ring-like curved tubulin complexes not wrapped around microtubules, aligned and classified in 2D. To be noted: scale: KLP10A motor domain per tubulin heterodimer.

Where “and” joins values, the source holds several entries; their conditions need not be identical. Equal values may be shown once.

Chain of UniProt P02550 (P02550 whole entry, chain 1 of 2, the tested form may be a part): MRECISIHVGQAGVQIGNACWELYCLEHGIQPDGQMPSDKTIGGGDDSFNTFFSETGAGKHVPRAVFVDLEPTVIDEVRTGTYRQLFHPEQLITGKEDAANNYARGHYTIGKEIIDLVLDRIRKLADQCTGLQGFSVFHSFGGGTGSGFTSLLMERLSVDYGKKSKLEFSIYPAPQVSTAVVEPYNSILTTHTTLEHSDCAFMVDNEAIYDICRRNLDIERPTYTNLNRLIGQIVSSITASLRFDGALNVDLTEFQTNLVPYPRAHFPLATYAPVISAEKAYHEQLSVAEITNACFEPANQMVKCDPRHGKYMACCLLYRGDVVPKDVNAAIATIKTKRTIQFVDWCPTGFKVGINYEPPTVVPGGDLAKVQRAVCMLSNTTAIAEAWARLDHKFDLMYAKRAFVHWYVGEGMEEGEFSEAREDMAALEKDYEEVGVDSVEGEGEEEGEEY
Chain of UniProt P02550 (P02554 1-439, chain 2 of 2, further chain): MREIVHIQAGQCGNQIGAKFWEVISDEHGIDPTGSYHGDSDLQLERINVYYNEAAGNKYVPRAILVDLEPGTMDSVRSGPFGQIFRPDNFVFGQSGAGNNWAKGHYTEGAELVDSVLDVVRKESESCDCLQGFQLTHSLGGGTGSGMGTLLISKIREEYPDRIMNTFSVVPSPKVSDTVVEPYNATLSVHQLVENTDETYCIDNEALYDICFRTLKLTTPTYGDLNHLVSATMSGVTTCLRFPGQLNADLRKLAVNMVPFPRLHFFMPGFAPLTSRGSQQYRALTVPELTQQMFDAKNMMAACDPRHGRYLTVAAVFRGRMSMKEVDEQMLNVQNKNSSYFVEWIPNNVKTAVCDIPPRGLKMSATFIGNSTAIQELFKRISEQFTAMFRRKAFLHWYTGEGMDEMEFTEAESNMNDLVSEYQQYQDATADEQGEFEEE

Usually stoichiometry N stands for the number of molecules, sites or subunits per partner or assembly. Turning to “Drosophila melanogaster kinesin-13 KLP10A neck motor construct (NM), residues 198-615 (from UniProt Q960Z0 198-615) (domain or fragment)”, the stoichiometry N is 1 and 0.5.

For the origin of these results see paper PMC5916938.
